According to patent US20200317802A1 (Merck KGaA, published 2020):
Where a chain is given by its changes, count along the chain named. Blank lines part the entries; values can stand above or below the binder they belong to.

Legend:
[1] = molecular target: T1, recombinant human ADAMTS5 (R&D Systems cat #2198-AD) (human, UniProt Q9UNA0 262-622, limits assumed); assay: cell-based or functional assay
T1 sequence: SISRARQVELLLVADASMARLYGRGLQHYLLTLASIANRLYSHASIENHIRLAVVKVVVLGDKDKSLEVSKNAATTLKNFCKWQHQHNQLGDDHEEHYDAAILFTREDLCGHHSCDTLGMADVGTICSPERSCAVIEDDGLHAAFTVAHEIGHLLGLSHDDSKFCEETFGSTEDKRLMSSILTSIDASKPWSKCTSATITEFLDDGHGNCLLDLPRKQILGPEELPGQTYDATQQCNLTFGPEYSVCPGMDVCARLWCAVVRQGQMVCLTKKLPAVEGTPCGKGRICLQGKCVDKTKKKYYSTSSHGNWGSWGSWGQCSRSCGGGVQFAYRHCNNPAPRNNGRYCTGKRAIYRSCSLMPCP

[2] = molecular target: T1, recombinant human ADAMTS5 (R&D Systems …); assay: binding ELISA, periplasmic extract on coated human ADAMTS5
Protocol: In a first step, periplasmic extracts were tested for binding to recombinant human ADAMTS5 by binding ELISA. In brief, recombinant human ADAMTS5 (R&D Systems, Minneapolis, US; cat #2198-AD) at a concentration of 1 μg/ml was coated on 384-well MaxiSorp plates (Nunc, Wiesbaden, Germany). Wells were blocked with a casein solution (1%). After addition of a 10-fold dilution of the periplasmic extracts, Nanobody binding was detected using a mouse anti-Flag-HRP conjugate (Sigma, St. Louis, US) and a subsequent enzymatic reaction in the presence of the substrate esTMB (3,3′,5,5′-tetramentylbenzidine) (SDT, Brussels, Belgium). Clones showing ELISA signals higher than the sum of the average signal of the irrelevant Nanobody controls and 3 times the standard deviation of the irrelevant Nanobody controls were considered to encode positive human ADAMTS5 binding Nanobodies.

[3] = molecular target: T1, recombinant human ADAMTS5 (R&D Systems …); assay: cell-based or functional assay; remark: listed apart in the source

B1: Nanobody 3F04 (VHH)
VHH: EVQLVESGGGSVQAGGSLRLSCVASGRYPMAWFRQAPGKEREFVAGVSWGGDRTYYADSVQGRFTVSRDYAKNTLYLQMNSLKPEDAAVYYCAGDPWGRLFRVKDNYSDWGQGTLVTVSS
notes: tagged as tested (anti-Flag detection, IMAC); also called 03F04
FRET assay % inh, periplasmic extract [1]: 8%
FRET assay vi (U/min), periplasmic extract [1]: 19 U/min
binding ELISA (OD 450 nm) [2]: 2.56 OD 450 nm

B2: Nanobody 9D10 (VHH)
VHH: EVQLVESGGGLVQAGGSLRLSCAASGRALSSSIMGWFRQAPGKEREFVAAITWSGGRAYYADVSDFEKGRFTISRDNGKNTVNLQMKGLKPEDTAVYYCAAALAIPVTMSPHEYPYWGQGTLVTVSS
FRET assay % inh, periplasmic extract [1]: 111%
FRET assay vi (U/min), periplasmic extract [1]: -2 U/min
Human AlphaLISA % inhibition [3]: 100%
Human AlphaLISA IC50 [3]: 0.97 nM

B3: Nanobody 9A05 (VHH)
VHH: EVQLVESGGGFVQAGGSLRLSCAASRRTISSGTMGWFRQAPGKEREFVAAIRWSSGITFYPDSVEGRFTISGDNAKNTVSLQMNSLKPEDTAVYYCAADRSALRDPSFEVNYEYWGRGTLVTVSS
FRET assay % inh, periplasmic extract [1]: 113%
FRET assay vi (U/min), periplasmic extract [1]: -3 U/min
Human AlphaLISA % inhibition [3]: 100%
Human AlphaLISA IC50 [3]: 0.32 nM

B4: Nanobody 2C10 (VHH)
VHH: EVQLVESGGGLVQAGGSLRLSCATSGFTFSPYYMGWFRQAPGKERDFVAAITRSRGTTYYLDSTEGRFTISRDNAKNTMYLQMNSLNPEDTAVYYCAAGRSPGDPSRTYLYEYWGQGTLVTVSS
notes: tagged as tested (anti-Flag detection, IMAC); also called 02C10
FRET assay % inh, periplasmic extract [1]: 90%
FRET assay vi (U/min), periplasmic extract [1]: 2 U/min
Human AlphaLISA % inhibition [3]: 100%
Human AlphaLISA IC50 [3]: 0.45 nM
binding ELISA (OD 450 nm) [2]: 1.63 OD 450 nm

B6: Nanobody 9D09 (VHH)
VHH: EVQLVESGGGLVQAGGSLRLSCAASGLTFSSYTMGWFRQAPGQEREFVSAISWNTFTTYYVDSVKDRFTVSRDNAKNTLYLRMNSLKPEDTAVYYCAAAGGSPRQHEPYEYRVWGQGTLVTVSS
FRET assay % inh, periplasmic extract [1]: 102%
FRET assay vi (U/min), periplasmic extract [1]: 0 U/min
Human AlphaLISA % inhibition [3]: 100%
Human AlphaLISA IC50 [3]: 2.6 nM

B8: Nanobody 2G01 (VHH)
VHH: EVQLVESGGGLVQAGGSLRLSCAASGRTTFSSYAMGWFRQAPGKERAFVATIWSGGLTVYADSAKGRFTISRDNAKNTVYLQMNSLRPEDTAVYYCAAEAVGTYYTPDGWTYWGQGTLVTVSS
notes: tagged as tested (anti-Flag detection, IMAC); also called 02G01
FRET assay % inh, periplasmic extract [1]: 55%
FRET assay vi (U/min), periplasmic extract [1]: 10 U/min
binding ELISA (OD 450 nm) [2]: 1.71 OD 450 nm

B9: Nanobody 2D12 (VHH)
VHH: EVQLVESGGGLVQAGDSLRLSCAASGRTFSTYFVGWFRQAPGKERDFVAAISRNGARTYYYDSVAGLFTISRDNAKNTVYLQMSSLKPEDTAVYYCAAARISPSDPSNEDGYDYWGQGTLVTVSS
notes: tagged as tested (anti-Flag detection, IMAC); also called 02D12
FRET assay % inh, periplasmic extract [1]: 90%
FRET assay vi (U/min), periplasmic extract [1]: 2 U/min
Human AlphaLISA % inhibition [3]: 100%
Human AlphaLISA IC50 [3]: 0.69 nM
binding ELISA (OD 450 nm) [2]: 1.35 OD 450 nm

More lines, now with the values ahead:

FRET assay % inh, periplasmic extract [1]: 111%
FRET assay vi (U/min), periplasmic extract [1]: -2 U/min
Human AlphaLISA % inhibition [3]: 100%
Human AlphaLISA IC50 [3]: 0.22 nM
binding ELISA (OD 450 nm) [2]: 2.58 OD 450 nm
B5: Nanobody 3D02 (VHH)
VHH: B4 VHH with G16A, T52S, R53W, T57I, T58L, L61T, N84D, S85N, G99S, E112D
notes: tagged as tested (anti-Flag detection, IMAC); also called 03D02

FRET assay % inh, periplasmic extract [1]: 90%
FRET assay vi (U/min), periplasmic extract [1]: 2 U/min
Human AlphaLISA % inhibition [3]: 100%
Human AlphaLISA IC50 [3]: 3.6 nM
binding ELISA (OD 450 nm) [2]: 0.368 OD 450 nm
B7: Nanobody 7B11 (VHH)
VHH: EVQLVESGGGLVQPGGSLRLSCAASGSIFSINVMGWYRQAPGKQRELVAAIISGGRTNYADSVKGRFTISRDNSKNTVYLQMNSLRPEDTAVYYCNAEVDAGIYAYGYWGQGTLVTVSS
notes: tagged as tested (anti-Flag detection, IMAC); also called 07B11

FRET assay % inh, periplasmic extract [1]: 93%
FRET assay vi (U/min), periplasmic extract [1]: 2 U/min
Human AlphaLISA % inhibition [3]: 100%
Human AlphaLISA IC50 [3]: 12 nM
binding ELISA (OD 450 nm) [2]: 2.29 OD 450 nm
B10: Nanobody 3B03 (VHH)
VHH: EVQLVESGGDLVQPGGSLRLSCAASGSDVVVNDMGWYRQAPGKQRELVADITTGGRTNYADSVKGRFTISRDNVKNTVYLQMNSLKPEDTAVYYCNAQVGDSDDDVWYAYWGQGTLVTVSS
notes: tagged as tested (anti-Flag detection, IMAC); also called 03B03

FRET assay % inh, periplasmic extract [1]: 91%
FRET assay vi (U/min), periplasmic extract [1]: 2 U/min
Human AlphaLISA % inhibition [3]: 99%
Human AlphaLISA IC50 [3]: 4.3 nM
binding ELISA (OD 450 nm) [2]: 1.65 OD 450 nm
B11: Nanobody 2A02 (VHH)
VHH: EVQLVESGGGLVQPGGSLRLSCAASRRTFSSYVMAWFRQAPGKEREFVAAISRSGDSTYYYDSLEGRFTISRDNAKNTVHLQMNSLKPEDTAVYICAASRAPSFRTIDAINYYDYWGQGTLVTVSS
notes: tagged as tested (anti-Flag detection, IMAC); also called 02A02

FRET assay % inh, periplasmic extract [1]: 99%
FRET assay vi (U/min), periplasmic extract [1]: 0 U/min
Human AlphaLISA % inhibition [3]: 100%
Human AlphaLISA IC50 [3]: 2.2 nM
B12: Nanobody 13E02 (VHH)
VHH: EVQLVESGGGLVQAGGSLRLSCVASGSIFSIDAMGWYRQAPGKERELVASVTTGASPNYGDSVTGRFTASRDRAKNALYLQMNSLKPEDTAVYYCNLIMTIPGGSQIMYWGQGTLVTVSS
